Legend:
[1] = target: T1, GST-human NOGO-A56 (human, UniProt Q9NQC3 586-785); experiment: SPR (Biacore 3000), GST-human NOGO-A56 on CM5 chip, antibody as analyte; single experiment
T1 construct: also called hNOGO; recombinant human NOGO; not shown: Glutathione S-transferase (GST) tag encoded by vector pGEX-6P1, N-terminal to the NOGO-A fragment; the tag and linker se
T1 sequence: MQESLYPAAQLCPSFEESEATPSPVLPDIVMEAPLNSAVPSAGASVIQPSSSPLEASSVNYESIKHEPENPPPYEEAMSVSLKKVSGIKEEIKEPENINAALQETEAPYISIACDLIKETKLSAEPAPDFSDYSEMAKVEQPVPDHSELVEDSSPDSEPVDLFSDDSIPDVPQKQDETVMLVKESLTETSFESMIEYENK
Description: (§1) The binding kinetics of the anti-NOGO monoclonal antibody (mAb) to recombinantly expressed human NOGO-A (GST-human NOGO-A56) was analysed using the Biacore3000 biosensor. The hNOGO-A chip was prepared as follows:
(§2) hNOGO (GST-human NOGO-A56) was immobilised to a CM5 chip by primary amine coupling using the Biacore Wizard program designed for targeted immobilisation levels. The CM5 sensor surface was activated by passing a solution of 50 mM N-hydroxy-succinimide (NHS) and 200 mM N-ethyl-N′-dimethylaminopropyl […] (EDC). Then hNOGO in sodium acetate buffer, pH5.0 or pH 4.5, was passed over the chip and immobilised. After immobilisation was complete any still activated esters were blocked by an injection of 1M ethanolamine hydrochloride, pH8.5.
(§3) The anti-NOGO mAbs were diluted down in HBS-EP (10 mM HEPES, pH 7.4, 150 mM NaCl, 3 mM EDTA, and 0.005% P-20 surfactant) and binding studies were carried out at range of defined antibody concentrations. All runs were referenced against a blanked sensor surface (one that had been activated and blocked as described earlier but had no addition of ligand). Analysis of binding was carried out using the BIAevaluation kinetic analysis software version 4.1. Biacore analysis of other antibodies of the invention essentially followed the same protocol as described herein.

[2] = target: T1, GST-human NOGO-A56; experiment: SPR off-rate ranking (Biacore), CHO-K1 transfection supernatant over GST-human NOGO-A56 chip; single experiment
Description: as §2
The hNOGO chip was prepared as for kinetic analysis. Cell supernatants where taken directly from transient transfections of CHO—K1 cells. These were passed directly over the sensor surface and the interaction measured. A mock transfected cell supernatant was used for double referencing to remove any artefacts due to the tissue culture media. All runs were referenced against a blanked sensor surface (one that had been activated and blocked as described earlier but had no addition of ligand). Analysis of binding was carried out using the BIAevaluation kinetic analysis software version 4.1.

[3] = target: T1, GST-human NOGO-A56; experiment: SPR (Biacore 3000), GST-human NOGO-A56 amine-coupled to CM5 chip, antibody as analyte; mean (SD) of four experiments
Description: as §1, §2, §3

B1: HcL11 (antibody, human IgG1, kappa)
heavy: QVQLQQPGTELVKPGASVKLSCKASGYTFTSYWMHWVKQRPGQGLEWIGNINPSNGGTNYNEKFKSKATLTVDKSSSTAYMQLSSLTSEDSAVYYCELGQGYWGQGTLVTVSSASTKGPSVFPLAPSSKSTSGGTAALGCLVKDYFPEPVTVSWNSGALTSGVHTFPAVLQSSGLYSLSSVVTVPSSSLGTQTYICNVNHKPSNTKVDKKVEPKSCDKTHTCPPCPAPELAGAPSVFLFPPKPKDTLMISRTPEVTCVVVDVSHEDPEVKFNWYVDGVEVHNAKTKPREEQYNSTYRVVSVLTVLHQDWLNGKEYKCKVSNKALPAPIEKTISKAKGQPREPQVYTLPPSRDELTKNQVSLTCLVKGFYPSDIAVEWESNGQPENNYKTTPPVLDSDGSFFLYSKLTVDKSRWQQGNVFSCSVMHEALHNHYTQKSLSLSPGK
light: DIVITQSPLSLPVTLGQPASISCRSSKSLLYKDGKTYLNWFQQRPGQSPQLLIYLMSTRASGVPDRFSGGGSGTDFTLKISRVEAEDVGVYYCQQLVEYPLTFGQGTKLEIKRTVAAPSVFIFPPSDEQLKSGTASVVCLLNNFYPREAKVQWKVDNALQSGNSQESVTEQDSKDSTYSLSSTLTLSKADYEKHKVYACEVTHQGLSSPVTKSFNRGEC
notes: Chimeric heavy chain Hc paired with humanised light chain L11
Kd [1]: 3.55 nM
koff [1]: 0.0134 s⁻¹
kon [1]: 3.78e+06 M⁻¹ s⁻¹

B2: H14L13 (antibody, human IgG1, kappa, V domains shown)
VH: QVQLVQSGAEVVKPGASVKLSCKASGYTFTSYWMHWVKQAPGQGLEWIGNINPSNGGTNYNEKFKSRATLTRDTSTSTAYMELSSLRSEDTAVYYCELGQGYWGQGTLVTVSS
VL: DIVMTQSPLSLPVTLGQPASISCRSSKSLLYKDGKTYLNWFQQRPGQSPQLLIYLMSTRASGVPDRFSGGGSGTDFTLKISRVEAEDVGVYYCQQLVEYPLTFGQGTKLEIKR
notes: Humanised 2A10; tested as CHO-K1 transfection supernatant; Human gamma-1 mutated constant region, human kappa
koff [2]: 0.0138 s⁻¹

B3: H10L13 (antibody, V domains shown)
VH: QVQLVQSGAEVKKPGASVKLSCKASGYTFTSYWMHWVKQAPGQGLEWIGNINPSNGGTNYNEKFKSRATLTVDKSTSTAYMELSSLRSEDTAVYYCELGQGYWGQGTLVTVSS
VL: DIVMTQSPLSLPVTLGQPASISCRSSKSLLYKDGKTYLNWFQQRPGQSPQLLIYLMSTRASGVPDRFSGGGSGTDFTLKISRVEAEDVGVYYCQQLVEYPLTFGQGTKLEIK
Kd [1]: 12.9 nM
koff [1]: 0.0212 s⁻¹
kon [1]: 1.64e+06 M⁻¹ s⁻¹

B4: H15L16 (antibody, human IgG1, kappa, V domains shown)
VH: QVQLVQSGAEVVKPGASVKLSCKASGYTFTSYWMHWVKQRPGQGLEWIGNINPSNGGTNYNEKFKSKATLTVDTSSSTAYMELSSLRSEDSAVYYCELGQGYWGQGTLVTVSS
VL: DIVMTQSPLSNPVTLGQPVSISCRSSKSLLYKDGKTYLNWFLQRPGQSPQLLIYLMSTRASGVPDRFSGGGSGTDFTLKISRVEAEDVGVYYCQQLVEYPLTFGQGTKLEIKR
notes: as for B2
koff [2]: 0.00604 s⁻¹

B5: H6L17 (antibody, human IgG1, kappa, V domains shown)
VH: QVQLVQSGAEVKKPGASVKVSCKASGYTFTSYWMHWVRQAPGQGLEWIGNINPSNGGTNYNEKFKSRATMTRDTSTSTAYMELSSLRSEDTAVYYCELGQGYWGQGTLVTVSS
VL: DIVMTQDPLSLPVTLGQPASISCRSSKSLLYKDGKTYLNWFQQRPGQSPQLLIYLMSTRASGVSDRFSGSGSGTDFTLKISRVEAEDVGVYYCQQLVEYPLTFGQGTKLEIKR
notes: as for B2
koff [2]: 0.0158 s⁻¹

B6: H17L16 (antibody, human IgG1, kappa)
heavy: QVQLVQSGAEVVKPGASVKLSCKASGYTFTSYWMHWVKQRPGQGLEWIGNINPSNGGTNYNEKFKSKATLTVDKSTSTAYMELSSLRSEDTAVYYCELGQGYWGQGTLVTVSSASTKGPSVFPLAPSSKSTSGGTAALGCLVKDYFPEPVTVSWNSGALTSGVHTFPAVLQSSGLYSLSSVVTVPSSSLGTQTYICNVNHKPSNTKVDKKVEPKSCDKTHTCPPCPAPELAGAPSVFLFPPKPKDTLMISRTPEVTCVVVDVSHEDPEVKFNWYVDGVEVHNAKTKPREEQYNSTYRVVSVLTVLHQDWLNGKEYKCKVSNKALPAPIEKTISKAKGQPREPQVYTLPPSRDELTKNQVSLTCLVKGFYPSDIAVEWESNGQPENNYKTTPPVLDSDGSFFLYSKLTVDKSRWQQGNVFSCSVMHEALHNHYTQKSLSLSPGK
light: DIVMTQSPLSNPVTLGQPVSISCRSSKSLLYKDGKTYLNWFLQRPGQSPQLLIYLMSTRASGVPDRFSGGGSGTDFTLKISRVEAEDVGVYYCQQLVEYPLTFGQGTKLEIKRTVAAPSVFIFPPSDEQLKSGTASVVCLLNNFYPREAKVQWKVDNALQSGNSQESVTEQDSKDSTYSLSSTLTLSKADYEKHKVYACEVTHQGLSSPVTKSFNRGEC
notes: Humanised 2A10; human gamma-1 mutated constant region, human kappa
Kd [3]: 1.82 nM
koff [3]: 0.0061 s⁻¹
kon [3]: 3.38e+06 M⁻¹ s⁻¹

B7: H5L6 (antibody, human IgG1, kappa, V domains shown)
VH: QVQLVQSGAEVKKPGASVKVSCKASGYTFTSYWMHWVRQAPGQGLEWMGNINPSNGGTNYNEKFKSRVTMTRDTSTSTAYMELSSLRSEDTAVYYCELGQGYWGQGTLVTVSS
VL: DIVMTQSPLSLPVTPGEPASISCRSSKSLLYKDGKTYLNWFLQRPGQSPQLLIYLMSTRASGVPDRFSGSGSGTDFTLKISRVEAEDVGVYYCQQLVEYPLTFGGGTKVEIKR
notes: as for B6
Kd [1]: 30.3 nM
koff [1]: 0.047 s⁻¹
kon [1]: 1.5e+06 M⁻¹ s⁻¹

B8: H6L15 (antibody, human IgG1, kappa, V domains shown)
VH: QVQLVQSGAEVKKPGASVKVSCKASGYTFTSYWMHWVRQAPGQGLEWIGNINPSNGGTNYNEKFKSRATMTRDTSTSTAYMELSSLRSEDTAVYYCELGQGYWGQGTLVTVSS
VL: DIVMTQSPLSLPVTLGQPASISCRSSKSLLYKDGKTYLNWFLQRPGQSPQLLIYLMSTRASGVSDRFSGGGSGTDFTLKISRVEAEDVGVYYCQQLVEYPLTFGQGTKLEIKR
notes: as for B2
koff [2]: 0.0211 s⁻¹

B9: H6L18 (antibody, human IgG1, kappa, V domains shown)
VH: QVQLVQSGAEVKKPGASVKVSCKASGYTFTSYWMHWVRQAPGQGLEWIGNINPSNGGTNYNEKFKSRATMTRDTSTSTAYMELSSLRSEDTAVYYCELGQGYWGQGTLVTVSS
VL: DIVMTQDPLSNPVTLGQPVSISCRSSKSLLYKDGKTYLNWFLQRPGQSPQLLIYLMSTRASGVSDRFSGSGSGTDFTLKISRVEAEDVGVYYCQQLVEYPLTFGQGTKLEIKR
notes: as for B2
koff [2]: 0.0106 s⁻¹

B10: H6L6 (antibody, human IgG1, kappa, V domains shown)
VH: QVQLVQSGAEVKKPGASVKVSCKASGYTFTSYWMHWVRQAPGQGLEWIGNINPSNGGTNYNEKFKSRATMTRDTSTSTAYMELSSLRSEDTAVYYCELGQGYWGQGTLVTVSS
VL: DIVMTQSPLSLPVTPGEPASISCRSSKSLLYKDGKTYLNWFLQRPGQSPQLLIYLMSTRASGVPDRFSGSGSGTDFTLKISRVEAEDVGVYYCQQLVEYPLTFGGGTKVEIKR
notes: as for B6
Kd [1]: 21.4 nM
koff [1]: 0.0254 s⁻¹
kon [1]: 1.2e+06 M⁻¹ s⁻¹

B11: HcL13 (antibody, human IgG1, kappa)
heavy: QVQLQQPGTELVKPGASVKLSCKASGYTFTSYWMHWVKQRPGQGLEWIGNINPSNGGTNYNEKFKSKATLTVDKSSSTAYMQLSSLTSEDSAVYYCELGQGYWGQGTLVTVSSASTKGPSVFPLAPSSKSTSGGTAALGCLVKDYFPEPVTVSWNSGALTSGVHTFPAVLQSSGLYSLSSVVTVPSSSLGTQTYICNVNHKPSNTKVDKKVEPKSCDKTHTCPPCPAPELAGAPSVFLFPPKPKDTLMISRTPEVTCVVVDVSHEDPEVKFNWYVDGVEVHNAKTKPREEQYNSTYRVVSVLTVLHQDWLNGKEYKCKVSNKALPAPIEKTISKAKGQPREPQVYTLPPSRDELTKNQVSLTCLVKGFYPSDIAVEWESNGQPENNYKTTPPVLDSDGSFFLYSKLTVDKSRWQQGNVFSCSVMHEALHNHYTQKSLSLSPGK
light: DIVMTQSPLSLPVTLGQPASISCRSSKSLLYKDGKTYLNWFQQRPGQSPQLLIYLMSTRASGVPDRFSGGGSGTDFTLKISRVEAEDVGVYYCQQLVEYPLTFGQGTKLEIKRTVAAPSVFIFPPSDEQLKSGTASVVCLLNNFYPREAKVQWKVDNALQSGNSQESVTEQDSKDSTYSLSSTLTLSKADYEKHKVYACEVTHQGLSSPVTKSFNRGEC
notes: Chimeric heavy chain Hc paired with humanised light chain L13
Kd [1]: 1.98 nM
koff [1]: 0.00938 s⁻¹
kon [1]: 4.8e+06 M⁻¹ s⁻¹

B12: H700L11 (antibody, human IgG1, kappa, V domains shown)
VH: QVQLVQSGAEVKKPGASVKVSCKASGYTFTSYWMHWVRQAPGQGLEWIGNINPSNGGTNYNEKFKSRATLTVDKSTSTAYMELSSLRSEDTAVYYCELGQGYWGQGTLVTVSS
VL: DIVITQSPLSLPVTLGQPASISCRSSKSLLYKDGKTYLNWFQQRPGQSPQLLIYLMSTRASGVPDRFSGGGSGTDFTLKISRVEAEDVGVYYCQQLVEYPLTFGQGTKLEIKR
notes: as for B6
Kd [1]: 19.4 nM
koff [1]: 0.0233 s⁻¹
kon [1]: 1.19e+06 M⁻¹ s⁻¹

B13: H15L13 (antibody, human IgG1, kappa, V domains shown)
VH: QVQLVQSGAEVVKPGASVKLSCKASGYTFTSYWMHWVKQRPGQGLEWIGNINPSNGGTNYNEKFKSKATLTVDTSSSTAYMELSSLRSEDSAVYYCELGQGYWGQGTLVTVSS
VL: DIVMTQSPLSLPVTLGQPASISCRSSKSLLYKDGKTYLNWFQQRPGQSPQLLIYLMSTRASGVPDRFSGGGSGTDFTLKISRVEAEDVGVYYCQQLVEYPLTFGQGTKLEIKR
notes: as for B2
koff [2]: 0.00965 s⁻¹

B14: H6L14 (antibody, human IgG1, kappa)
heavy: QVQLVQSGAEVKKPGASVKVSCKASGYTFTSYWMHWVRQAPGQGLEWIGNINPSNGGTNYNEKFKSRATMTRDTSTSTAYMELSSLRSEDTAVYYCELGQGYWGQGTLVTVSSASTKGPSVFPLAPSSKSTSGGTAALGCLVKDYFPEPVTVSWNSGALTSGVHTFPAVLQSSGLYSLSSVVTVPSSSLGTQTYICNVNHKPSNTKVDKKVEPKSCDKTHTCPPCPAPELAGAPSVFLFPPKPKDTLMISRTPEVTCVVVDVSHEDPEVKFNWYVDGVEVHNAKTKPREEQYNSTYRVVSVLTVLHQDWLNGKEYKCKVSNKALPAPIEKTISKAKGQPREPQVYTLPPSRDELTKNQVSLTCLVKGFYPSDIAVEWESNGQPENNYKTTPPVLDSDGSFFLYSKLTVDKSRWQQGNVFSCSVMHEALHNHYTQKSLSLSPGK
light: DIVMTQSPLSLPVTLGQPASISCRSSKSLLYKDGKTYLNWFLQRPGQSPQLLIYLMSTRASGVPDRFSGGGSGTDFTLKISRVEAEDVGVYYCQQLVEYPLTFGQGTKLEIKRTVAAPSVFIFPPSDEQLKSGTASVVCLLNNFYPREAKVQWKVDNALQSGNSQESVTEQDSKDSTYSLSSTLTLSKADYEKHKVYACEVTHQGLSSPVTKSFNRGEC
notes: as for B2
koff [2]: 0.0457 s⁻¹

B15: H6L16 (antibody, human IgG1, kappa)
heavy: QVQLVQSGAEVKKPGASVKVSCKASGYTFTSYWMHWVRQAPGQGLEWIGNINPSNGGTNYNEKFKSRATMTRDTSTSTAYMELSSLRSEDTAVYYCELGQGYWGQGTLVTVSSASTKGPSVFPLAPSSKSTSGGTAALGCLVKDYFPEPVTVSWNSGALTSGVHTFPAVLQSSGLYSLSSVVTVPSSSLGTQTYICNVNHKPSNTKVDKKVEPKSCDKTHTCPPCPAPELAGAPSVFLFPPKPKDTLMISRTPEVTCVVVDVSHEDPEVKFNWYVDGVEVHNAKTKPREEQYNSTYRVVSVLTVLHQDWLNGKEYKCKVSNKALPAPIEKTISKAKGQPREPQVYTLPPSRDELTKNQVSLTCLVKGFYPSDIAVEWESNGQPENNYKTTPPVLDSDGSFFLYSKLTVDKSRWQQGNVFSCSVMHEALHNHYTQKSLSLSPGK
light: DIVMTQSPLSNPVTLGQPVSISCRSSKSLLYKDGKTYLNWFLQRPGQSPQLLIYLMSTRASGVPDRFSGGGSGTDFTLKISRVEAEDVGVYYCQQLVEYPLTFGQGTKLEIKRTVAAPSVFIFPPSDEQLKSGTASVVCLLNNFYPREAKVQWKVDNALQSGNSQESVTEQDSKDSTYSLSSTLTLSKADYEKHKVYACEVTHQGLSSPVTKSFNRGEC
notes: as for B2
koff [2]: 0.0114 s⁻¹
